In patent publication US20030219445A1:
Where “and” joins values, the source holds several entries; their conditions need not be identical. Identical values can stand only once.

Experiments:
[1] = target: biotinylated 9C5 antibody (anti-human CD34 monoclonal antibody, biotinylated with Biotin Hydrazide); assay: cell-based or functional assay
[2] = target: CD34 antibody 9069 (9C5) coated on M-450 Dynabeads; assay: cell-based or functional assay

QQGWFPKD (N-terminal acetyl (printed Ac-QQGWFPKD)) [free PR34+ peptide Ac-QQGWFPKD]
% SUP-T1 Yield (tube 2, cells released with free PR34+ peptide) [1]: 43%
% SUP-T1 Yield (tube 3, cells released with free PR34+ peptide) [1]: 31%
% T-cells released with 9069N 2.5 mg (CD2-9069N 1 µg, b-9069 1 µg) [1]: 71%
% T-cells released with 9069N 2.5 mg (CD2-9069N 1 µg, b-9069 10 µg) [1]: 87% and 65%
% T-cells released with 9069N 2.5 mg (CD2-9069N 5 µg, b-9069 1 µg) [1]: 61% and 56%
% T-cells released with 9069N 2.5 mg (CD2-9069N 5 µg, b-9069 10 µg) [1]: 50%
% Yield of CD8+ cells (condition 3, released with free PR34+ peptide) [1]: 16%
% Yield, released with PR34+ 2.5 mg (streptavidin coated Dynabead control) [1]: 81.5%
% Yield, released with PR34+ 2.5 mg (beads with 1 µg antibody per 10^8 beads) [2]: 55.9%
% Yield, released with PR34+ 2.5 mg (beads with 5 µg antibody per 10^8 beads) [2]: 68.9%
% Yield, released with PR34+ 2.5 mg (beads with 20 µg antibody per 10^8 beads) [2]: 47.4%
% Yield, released with PR34+ 2.5 mg (beads with 50 µg antibody per 10^8 beads) [2]: 57.5%
release of Camma cells from anti-CD34-coated Dynabeads [2]: > 75%
yield of Camma cells after release with PR34 peptide [2]: > 70%
